Where a chain is given by its changes, count along the chain named. Names may count otherwise.
What was measured:
[1] = target: cell surface receptor composed of FGFR1c and co-receptor beta-Klotho (KLB) (human, UniProt P11362 22-822; Q86Z14 1-1044); assay: cell-based or functional assay; on Mean E max, Luciferase reporter gene assay: reference of the scale not given here
human beta-Klotho (KLB) = target: T1, human beta-Klotho (KLB) (human, UniProt Q86Z14 53-997); assay: BLI off-rate screen, supernatant;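 further: expression supernatants tested at 25 µg/mL, dissociation followed for 1800 s in D-PBS with 0.1% BSA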
T1 construct: Bought soluble protein; also called human KLB; ß-Klotho
T1 sequence (looked up): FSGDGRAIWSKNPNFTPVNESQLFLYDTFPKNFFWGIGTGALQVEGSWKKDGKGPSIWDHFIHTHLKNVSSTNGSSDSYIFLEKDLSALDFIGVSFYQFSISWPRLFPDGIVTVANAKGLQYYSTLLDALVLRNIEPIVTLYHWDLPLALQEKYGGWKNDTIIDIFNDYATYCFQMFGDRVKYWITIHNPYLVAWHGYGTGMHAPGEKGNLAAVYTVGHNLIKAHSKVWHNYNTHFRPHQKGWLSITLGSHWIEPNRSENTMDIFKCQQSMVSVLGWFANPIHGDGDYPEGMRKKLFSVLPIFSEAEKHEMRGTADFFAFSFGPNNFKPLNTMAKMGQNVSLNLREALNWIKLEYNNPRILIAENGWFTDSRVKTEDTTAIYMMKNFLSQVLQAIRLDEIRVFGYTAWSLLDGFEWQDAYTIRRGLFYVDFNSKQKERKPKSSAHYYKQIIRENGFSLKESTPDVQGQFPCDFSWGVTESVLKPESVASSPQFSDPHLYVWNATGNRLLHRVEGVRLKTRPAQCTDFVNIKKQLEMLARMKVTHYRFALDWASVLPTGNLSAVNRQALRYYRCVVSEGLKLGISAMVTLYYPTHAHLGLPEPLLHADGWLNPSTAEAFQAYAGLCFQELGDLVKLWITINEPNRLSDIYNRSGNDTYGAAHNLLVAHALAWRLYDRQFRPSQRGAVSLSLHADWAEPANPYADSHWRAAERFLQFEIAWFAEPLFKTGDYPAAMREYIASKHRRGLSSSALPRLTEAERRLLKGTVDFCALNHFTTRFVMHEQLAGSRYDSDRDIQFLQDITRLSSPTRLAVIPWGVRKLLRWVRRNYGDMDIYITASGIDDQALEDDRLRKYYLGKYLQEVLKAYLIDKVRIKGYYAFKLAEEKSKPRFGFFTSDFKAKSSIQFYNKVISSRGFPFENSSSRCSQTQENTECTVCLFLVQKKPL

Chain of cell surface receptor composed of FGFR1c and co-receptor beta-Klotho (KLB) (P11362 22-822, chain 1 of 2): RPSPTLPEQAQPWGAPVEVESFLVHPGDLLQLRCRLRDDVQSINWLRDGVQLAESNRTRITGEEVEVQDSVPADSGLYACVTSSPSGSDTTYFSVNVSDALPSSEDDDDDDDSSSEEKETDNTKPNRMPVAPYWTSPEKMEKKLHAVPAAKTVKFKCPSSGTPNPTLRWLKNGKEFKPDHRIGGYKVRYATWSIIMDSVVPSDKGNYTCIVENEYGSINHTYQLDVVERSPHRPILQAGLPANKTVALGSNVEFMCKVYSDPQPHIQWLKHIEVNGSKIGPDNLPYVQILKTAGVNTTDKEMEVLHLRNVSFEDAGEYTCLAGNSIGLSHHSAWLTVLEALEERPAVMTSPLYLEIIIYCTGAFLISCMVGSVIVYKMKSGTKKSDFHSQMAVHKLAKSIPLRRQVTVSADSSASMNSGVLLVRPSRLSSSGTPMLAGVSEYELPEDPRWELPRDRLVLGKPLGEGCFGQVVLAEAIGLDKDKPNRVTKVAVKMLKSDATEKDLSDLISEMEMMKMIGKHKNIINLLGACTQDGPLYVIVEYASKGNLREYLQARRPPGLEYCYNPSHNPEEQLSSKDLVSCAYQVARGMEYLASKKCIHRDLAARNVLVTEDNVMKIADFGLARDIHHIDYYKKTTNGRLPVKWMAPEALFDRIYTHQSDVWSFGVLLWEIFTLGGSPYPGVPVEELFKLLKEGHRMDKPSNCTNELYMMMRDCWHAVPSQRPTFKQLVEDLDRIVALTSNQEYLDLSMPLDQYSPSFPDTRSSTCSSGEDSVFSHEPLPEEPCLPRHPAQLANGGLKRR
Chain of cell surface receptor composed of FGFR1c and co-receptor beta-Klotho (KLB) (Q86Z14 whole entry, chain 2 of 2): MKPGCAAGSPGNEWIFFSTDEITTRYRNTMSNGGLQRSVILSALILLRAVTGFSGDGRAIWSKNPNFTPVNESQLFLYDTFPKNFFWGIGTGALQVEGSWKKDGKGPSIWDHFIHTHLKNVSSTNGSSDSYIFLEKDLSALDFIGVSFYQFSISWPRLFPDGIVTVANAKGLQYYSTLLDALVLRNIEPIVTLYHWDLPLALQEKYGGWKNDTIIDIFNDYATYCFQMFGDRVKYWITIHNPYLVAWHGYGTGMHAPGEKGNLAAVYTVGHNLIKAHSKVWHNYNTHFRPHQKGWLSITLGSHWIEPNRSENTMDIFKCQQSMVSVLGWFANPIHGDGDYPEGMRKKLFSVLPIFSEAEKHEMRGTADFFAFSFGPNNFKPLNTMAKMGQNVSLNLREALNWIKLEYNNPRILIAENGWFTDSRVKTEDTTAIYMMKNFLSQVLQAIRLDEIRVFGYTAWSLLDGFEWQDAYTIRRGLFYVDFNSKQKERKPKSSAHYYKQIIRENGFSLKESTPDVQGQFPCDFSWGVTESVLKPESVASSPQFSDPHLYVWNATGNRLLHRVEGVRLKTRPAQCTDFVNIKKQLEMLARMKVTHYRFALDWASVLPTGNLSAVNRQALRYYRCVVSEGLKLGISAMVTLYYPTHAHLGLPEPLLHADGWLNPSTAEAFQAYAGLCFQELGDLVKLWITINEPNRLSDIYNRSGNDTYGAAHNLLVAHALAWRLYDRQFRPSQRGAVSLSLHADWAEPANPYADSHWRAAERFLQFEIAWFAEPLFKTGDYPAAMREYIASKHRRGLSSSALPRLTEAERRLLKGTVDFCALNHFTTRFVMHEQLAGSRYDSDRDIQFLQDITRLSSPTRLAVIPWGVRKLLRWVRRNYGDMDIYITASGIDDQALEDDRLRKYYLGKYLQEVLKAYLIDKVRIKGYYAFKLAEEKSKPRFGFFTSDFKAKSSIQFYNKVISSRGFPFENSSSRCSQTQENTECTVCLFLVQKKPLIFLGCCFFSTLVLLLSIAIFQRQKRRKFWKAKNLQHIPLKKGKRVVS

B1: 16H7 light chain variant E30D (antibody, human IgG4 S228P, lambda, V domains shown)
VH: not shown
VL: SYVLTQPPSVSVAPGQTARITCGGNNIGSDSVHWYQQKPGQAPVLVVYDDSDRPSGIPERFSGSNSGNTATLTISRVEAGDEADYYCQVWDGNSDHVVFGGGTKLTVLG
[1]
  Mean E max, Luciferase reporter gene assay: 96%
  Mean EC50, Luciferase reporter gene assay: 0.118 nM
Human beta-Klotho (KLB)
  koff: 3.6e-05 s⁻¹

B2: 16H7 light chain variant I27H (antibody, V domains shown)
VH: not shown
VL: B1 VL with I27H, D30E
notes: copies: 2 + 2
[1]
  Mean E max, Luciferase reporter gene assay: 100%
  Mean EC50, Luciferase reporter gene assay: 0.098 nM
Human beta-Klotho (KLB)
  koff: 3.3e-05 s⁻¹

B3: 16H7 light chain variant E30Q (antibody, V domains shown)
VH: not shown
VL: B1 VL with D30Q
notes: copies: 2 + 2
[1]
  Mean E max, Luciferase reporter gene assay: 99%
  Mean EC50, Luciferase reporter gene assay: 0.123 nM
Human beta-Klotho (KLB)
  koff: 1e-07 s⁻¹

B4: 16H7 light chain variant E30V (antibody, V domains shown)
VH: not shown
VL: B1 VL with D30V
notes: copies: 2 + 2
[1]
  Mean E max, Luciferase reporter gene assay: 108%
  Mean EC50, Luciferase reporter gene assay: 0.14 nM
Human beta-Klotho (KLB)
  koff: 4.1e-05 s⁻¹

B5: 16H7 light chain variant I27F (antibody, V domains shown)
VH: not shown
VL: B1 VL with I27F, D30E
notes: copies: 2 + 2
[1]
  Mean E max, Luciferase reporter gene assay: 104%
  Mean EC50, Luciferase reporter gene assay: 0.118 nM
Human beta-Klotho (KLB)
  koff: 2e-05 s⁻¹

B6: 16H7 light chain variant E30S (antibody, human IgG4 S228P, lambda, V domains shown)
VH: not shown
VL: B1 VL with D30S
[1]
  Mean E max, Luciferase reporter gene assay: 114%
  Mean EC50, Luciferase reporter gene assay: 0.132 nM
Human beta-Klotho (KLB)
  koff: 1.6e-05 s⁻¹

B7: 16H7 light chain variant E30T (antibody, V domains shown)
VH: not shown
VL: B1 VL with D30T
notes: copies: 2 + 2
[1]
  Mean E max, Luciferase reporter gene assay: 100%
  Mean EC50, Luciferase reporter gene assay: 0.105 nM
Human beta-Klotho (KLB)
  koff: 4.9e-05 s⁻¹

B8: 16H7 light chain variant G28I (antibody, human IgG4 S228P, lambda, V domains shown)
VH: not shown
VL: B1 VL with G28I, D30E
[1]
  Mean E max, Luciferase reporter gene assay: 112%
  Mean EC50, Luciferase reporter gene assay: 0.132 nM
Human beta-Klotho (KLB)
  koff: 3.3e-05 s⁻¹

B9: 16H7 light chain variant G28E (antibody, human IgG4 S228P, lambda, V domains shown)
VH: not shown
VL: B1 VL with G28E, D30E
[1]
  Mean E max, Luciferase reporter gene assay: 105%
  Mean EC50, Luciferase reporter gene assay: 0.12 nM
Human beta-Klotho (KLB)
  koff: 1.8e-05 s⁻¹

B10: 16H7 light chain variant G28F (antibody, human IgG4 S228P, lambda, V domains shown)
VH: not shown
VL: B1 VL with G28F, D30E
[1]
  Mean E max, Luciferase reporter gene assay: 102%
  Mean EC50, Luciferase reporter gene assay: 0.124 nM
Human beta-Klotho (KLB)
  koff: 3.9e-05 s⁻¹

B11: 16H7 light chain variant G28N (antibody, human IgG4 S228P, lambda, V domains shown)
VH: not shown
VL: B1 VL with G28N, D30E
[1]
  Mean E max, Luciferase reporter gene assay: 113%
  Mean EC50, Luciferase reporter gene assay: 0.111 nM
Human beta-Klotho (KLB)
  koff: 1.8e-05 s⁻¹

B12: 16H7 light chain variant I27N (antibody, V domains shown)
VH: not shown
VL: B1 VL with I27N, D30E
notes: copies: 2 + 2
[1]
  Mean E max, Luciferase reporter gene assay: 96%
  Mean EC50, Luciferase reporter gene assay: 0.162 nM
Human beta-Klotho (KLB)
  koff: 4.5e-05 s⁻¹

B13: 16H7 light chain variant G28L (antibody, human IgG4 S228P, lambda, V domains shown)
VH: not shown
VL: B1 VL with G28L, D30E
[1]
  Mean E max, Luciferase reporter gene assay: 104%
  Mean EC50, Luciferase reporter gene assay: 0.137 nM
Human beta-Klotho (KLB)
  koff: 6.1e-06 s⁻¹

B14: 16H7 light chain variant G28Y (antibody, human IgG4 S228P, lambda, V domains shown)
VH: not shown
VL: B1 VL with G28Y, D30E
[1]
  Mean E max, Luciferase reporter gene assay: 109%
  Mean EC50, Luciferase reporter gene assay: 0.131 nM
Human beta-Klotho (KLB)
  koff: 5.3e-05 s⁻¹

B15: 16H7 light chain variant G28R (antibody, human IgG4 S228P, lambda, V domains shown)
VH: not shown
VL: B1 VL with G28R, D30E
[1]
  Mean E max, Luciferase reporter gene assay: 102%
  Mean EC50, Luciferase reporter gene assay: 0.138 nM
Human beta-Klotho (KLB)
  koff: 8.5e-05 s⁻¹

B16: 16H7 light chain variant E30N (antibody, V domains shown)
VH: not shown
VL: B1 VL with D30N
notes: copies: 2 + 2
[1]
  Mean E max, Luciferase reporter gene assay: 110%
  Mean EC50, Luciferase reporter gene assay: 0.163 nM
Human beta-Klotho (KLB)
  koff: 2.4e-05 s⁻¹

B17: 16H7 light chain variant E30G (antibody, human IgG4 S228P, lambda, V domains shown)
VH: not shown
VL: B1 VL with D30G
[1]
  Mean E max, Luciferase reporter gene assay: 94%
  Mean EC50, Luciferase reporter gene assay: 0.138 nM
Human beta-Klotho (KLB)
  koff: 4.8e-05 s⁻¹

B18: 16H7 light chain variant E30Y (antibody, V domains shown)
VH: not shown
VL: B1 VL with D30Y
notes: copies: 2 + 2
[1]
  Mean E max, Luciferase reporter gene assay: 107%
  Mean EC50, Luciferase reporter gene assay: 0.152 nM
Human beta-Klotho (KLB)
  koff: 7.6e-05 s⁻¹

B19: 16H7 light chain variant E30I (antibody, human IgG4 S228P, lambda, V domains shown)
VH: not shown
VL: B1 VL with D30I
[1]
  Mean E max, Luciferase reporter gene assay: 108%
  Mean EC50, Luciferase reporter gene assay: 0.136 nM
Human beta-Klotho (KLB)
  koff: 7.3e-05 s⁻¹

B20: 16H7 light chain variant G28P (antibody, human IgG4 S228P, lambda, V domains shown)
VH: not shown
VL: B1 VL with G28P, D30E
[1]
  Mean E max, Luciferase reporter gene assay: 103%
  Mean EC50, Luciferase reporter gene assay: 0.132 nM
Human beta-Klotho (KLB)
  koff: 6.2e-05 s⁻¹

B21: 16H7 light chain variant G28D (antibody, human IgG4 S228P, lambda, V domains shown)
VH: not shown
VL: B1 VL with G28D, D30E
[1]
  Mean E max, Luciferase reporter gene assay: 107%
  Mean EC50, Luciferase reporter gene assay: 0.126 nM
Human beta-Klotho (KLB)
  koff: 4e-05 s⁻¹

B22: 16H7 light chain variant E30L (antibody, V domains shown)
VH: not shown
VL: B1 VL with D30L
notes: copies: 2 + 2
[1]
  Mean E max, Luciferase reporter gene assay: 96%
  Mean EC50, Luciferase reporter gene assay: 0.16 nM
Human beta-Klotho (KLB)
  koff: 6.9e-05 s⁻¹

B23: 16H7 light chain variant E30F (antibody, V domains shown)
VH: not shown
VL: B1 VL with D30F
notes: copies: 2 + 2
[1]
  Mean E max, Luciferase reporter gene assay: 92%
  Mean EC50, Luciferase reporter gene assay: 0.107 nM
Human beta-Klotho (KLB)
  koff: 9.7e-05 s⁻¹

B24: 16H7 light chain variant I27P (antibody, human IgG4 S228P, lambda, V domains shown)
VH: not shown
VL: B1 VL with I27P, D30E
[1]
  Mean E max, Luciferase reporter gene assay: 107%
  Mean EC50, Luciferase reporter gene assay: 0.145 nM
Human beta-Klotho (KLB)
  koff: 3.5e-06 s⁻¹

B25: 16H7 light chain variant E30R (antibody, V domains shown)
VH: not shown
VL: B1 VL with D30R
notes: copies: 2 + 2
[1]
  Mean E max, Luciferase reporter gene assay: 96%
  Mean EC50, Luciferase reporter gene assay: 0.162 nM
Human beta-Klotho (KLB)
  koff: 3.7e-05 s⁻¹

B26: 16H7 light chain variant G28C (antibody, human IgG4 S228P, lambda, V domains shown)
VH: not shown
VL: B1 VL with G28C, D30E
[1]
  Mean E max, Luciferase reporter gene assay: 100%
  Mean EC50, Luciferase reporter gene assay: 0.103 nM
Human beta-Klotho (KLB)
  koff: 9.1e-06 s⁻¹

B27: 16H7 light chain variant I27A (antibody, human IgG4 S228P, lambda, V domains shown)
VH: not shown
VL: B1 VL with I27A, D30E
[1]
  Mean E max, Luciferase reporter gene assay: 107%
  Mean EC50, Luciferase reporter gene assay: 0.111 nM
Human beta-Klotho (KLB)
  koff: 5.3e-05 s⁻¹

B28: 16H7 light chain variant G28H (antibody, human IgG4 S228P, lambda, V domains shown)
VH: not shown
VL: B1 VL with G28H, D30E
[1]
  Mean E max, Luciferase reporter gene assay: 108%
  Mean EC50, Luciferase reporter gene assay: 0.165 nM
Human beta-Klotho (KLB)
  koff: 1.8e-05 s⁻¹

B29: 16H7 light chain variant G28W (antibody, human IgG4 S228P, lambda, V domains shown)
VH: not shown
VL: B1 VL with G28W, D30E
[1]
  Mean E max, Luciferase reporter gene assay: 96%
  Mean EC50, Luciferase reporter gene assay: 0.142 nM
Human beta-Klotho (KLB)
  koff: 3.7e-05 s⁻¹

B30: 16H7 light chain variant E30M (antibody, V domains shown)
VH: not shown
VL: B1 VL with D30M
notes: copies: 2 + 2
[1]
  Mean E max, Luciferase reporter gene assay: 100%
  Mean EC50, Luciferase reporter gene assay: 0.12 nM
Human beta-Klotho (KLB)
  koff: 3.8e-05 s⁻¹

B31: 16H7 light chain variant G28S (antibody, human IgG4 S228P, lambda, V domains shown)
VH: not shown
VL: B1 VL with G28S, D30E
[1]
  Mean E max, Luciferase reporter gene assay: 109%
  Mean EC50, Luciferase reporter gene assay: 0.14 nM
Human beta-Klotho (KLB)
  koff: 2.3e-06 s⁻¹

B32: 16H7 light chain variant I27M (antibody, human IgG4 S228P, lambda, V domains shown)
VH: not shown
VL: B1 VL with I27M, D30E
[1]
  Mean E max, Luciferase reporter gene assay: 97%
  Mean EC50, Luciferase reporter gene assay: 0.087 nM
Human beta-Klotho (KLB)
  koff: 6e-05 s⁻¹

B33: 16H7 light chain variant G28K (antibody, human IgG4 S228P, lambda, V domains shown)
VH: not shown
VL: B1 VL with G28K, D30E
[1]
  Mean E max, Luciferase reporter gene assay: 108%
  Mean EC50, Luciferase reporter gene assay: 0.149 nM
Human beta-Klotho (KLB)
  koff: 3.3e-05 s⁻¹

B34: 16H7 light chain variant I27C (antibody, human IgG4 S228P, lambda, V domains shown)
VH: not shown
VL: B1 VL with I27C, D30E
[1]
  Mean E max, Luciferase reporter gene assay: 106%
  Mean EC50, Luciferase reporter gene assay: 0.16 nM
Human beta-Klotho (KLB)
  koff: 3.8e-05 s⁻¹

B35: 16H7 light chain variant G28T (antibody, human IgG4 S228P, lambda, V domains shown)
VH: not shown
VL: B1 VL with G28T, D30E
[1]
  Mean E max, Luciferase reporter gene assay: 110%
  Mean EC50, Luciferase reporter gene assay: 0.187 nM
Human beta-Klotho (KLB)
  koff: 1.5e-06 s⁻¹

Source: patent US20220010021A1 (Sanofi, published 2022)
